# Test results reported in the nanobody polyreactivity screen of Harvey et al. (2022).
# Assay: yeast display, Sf9 membrane polyspecificity reagent, FACS + sequencing; frameworks hold sequencing errors
# Summary of the method: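 Polyreactivity labels are assigned by the sorting gate from which each nanobody was recovered. The gates were low and high (top ~1%), set on anti-HA fluorescence for expression and streptavidin fluorescence for reagent binding. Before sorting, galactose-induced (36–48 hours) yeast display cells were stained for 1 hour at 4 °C with 10% biotinylated, detergent-solubilized Sf9 membrane reagent.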
row,Sequence,polyreactivity (PSR sort gate)
1,QVQLVESGGGLVQAGGSLRLSCAASGSIFYDNAMGWYRQAPGKERELVASIRYSGVRTYYADSVKGRFTISRDNAKNTVYLQMNSLKPEDTAVYYCAADVYRQFYPFKSDYWGQGTQVTVSS,high polyreactivity
2,QVQLVESGGGLVQAGGSLRLSCAASGSIFYDNAMGWYRQAPGKERELVATIRGGGNTYYADSVKGRFTISRDNAKNTVYLQMNSLKPEDTAVYYCAKQSDFPGVPLVYGVYGYDYWGQGTQVTVSS,low polyreactivity
3,QVQLVESGGGLVQAGGSLRLSCAASGSIFYDYAMGWYRQAPGKERELVAAINSGDSTYYADSVKGRFTISRDNAKNTVYLQMNSLKPEDTAVYYCAATYFSPYIEYDYWGQGTQVTVSS,low polyreactivity
4,QVQLVESGGGLVQAGGSLRLSCAASGSIFYDYAMGWYRQAPGKERELVAALTNDDSSTYYADSVKGRFTISRDNAKNTVYLQMNSLKPEDTAVYYCRFKYAVAHQFWVYRYDYWGQGTQVTVSS,low polyreactivity
5,QVQLVESGGGLVQAGGSLRLSCAASGSIFYDYAMGWYRQAPGKERELVADITDDSTNYADSVKGRFTISRDNAKNTVYLQMNSLKPEDTAVYYCAVDWYWGWYWDGGVLTYYYWGQGTQVTVSS,low polyreactivity
6,QVQLVESGGGLVQAGGSLRLSCAASGSIFYDYEMGWYRQAPGKERELVASINTGGSTNYADSVKGRFTISRDNAKNTVYLKMNSLKPEDTAVYYCNAPRGYPTSANHLDYWGQGTQVTVSS,low polyreactivity
7,QVQLVESGGGLVQAGGSLRLSCAASGSIFYENAMGWYRKAPGKEREFVATIDLIGDRTYYADSVKGRFTISRDNAKNTVYLQMNSLKPEDTAVYYCAAERVGVFFRYDYWGQGTQVTVSS,low polyreactivity
8,QVQLVESGGGLVQAGGSLRLSCAASGSIFYFNAMGWYRQAPGKERELVARISGSSGRTYYADSVKGRFTISRDNAKNTVYLQMNSLKPEDTAVYYCAARYYTSATMDYWGQGTQVTVSS,high polyreactivity
9,QVQLVESGGGLVQAGGSLRLSCAASGSIFYFNAMGWYRQAPGKERELVASITSGGSTNYADSVKGRFTISRDNAKNTVYLQMNSLKPEDTAVYYCNARFPYLSRWLVRGLASYDYWGQGTQVTVSS,low polyreactivity
10,QVQLVESGGGLVQAGGSLRLSCAASGSIFYFYARGWYRLAPGKERELVAAIRFTGGTTYYADSVKGRFTISRDNAKNTVDLQMNSLKPEDTADYYCAKQTSYWSRGFDYWGQGTQVTVSS,low polyreactivity
11,QVQLVESGGGLVQAGGSLRLSCAASGSIFYGNAMGGYRQAPGKERELVASITYSGGNTQYADSVKGRFTISRDNAKNTVYLQMNSLKPEVTAVYYCNARRYGVDTGWRQGLDSWGQGTQVTVSS,low polyreactivity
12,QVQLVESGGGLVQAGGSLRLSCAASGSIFYGNAMGWYRPAPGKERELVAGITSGVGTNYADSVKGRFTISRDNAKNTVYLQMNSLKPEDTAVYYCAARVYRYRHYDYWGQGTQVTVSS,high polyreactivity
13,QVQLVESGGGLVQAGGSLRLSCAASGSIFYGNAMGWYRQAPGKEREFVAAINWSGARTYYADSVKGRFTISRDNAKNTVSLQMNSLKPEDTAVYYCAAGRPFSFRYEFDYWGQGTQVTVSS,high polyreactivity
14,QVQLVESGGGLVQAGGSLRLSCAASGSIFYGNAMGWYRQAPGKEREFVAGISWYGGSTYYADSVKGRFTISRDNAKNTVYLQMNSLKPEDTAVYYGATVADEPRAYSGYEESDYWGQGTQVTVSS,low polyreactivity
15,QVQLVESGGGLVQAGGSLRLSCAASGSIFYGNAMGWYRQAPGKERELVARISWSGSNTRYADSVKGRFTISRDNAKNTVYLQMNSLKPEDTAVYYCNVKPSARGSPLYDYWGQGTQVTVSS,high polyreactivity
16,QVQLVESGGGLVQAGGSLRLSCAASGSIFYGNAMGWYRQAPGKERELVASITYSGGTTNYADSVKGRFTISRDNAKNTVYLQMNSLKPEDTAVYYCNADIYPDRYGSTNYDFNYWGQGTQVTVSS,low polyreactivity
17,QVQLVESGGGLVQAGGSLRLSCAASGSIFYGYAMGWYRQAPGKEREFVAGIDSSGGSTSYADSVKGRFTISRDNAKNTVYLQMNSLKPEDTAVYYCNAPDPSDQHGDYWGQGTQVTVSS,low polyreactivity
18,QVQLVESGGGLVQAGGSLRLSCAASGSIFYGYAMGWYRQAPGKERELVAAIRSRGGSTYYADSVKGRFTNSRDNEKNTVYLQMKCLKPEDTAVYYCNAVCRARTLCSNTYGYWGQGTQVSVSS,high polyreactivity
19,QVQLVESGGGLVQAGGSLRLSCAASGSIFYGYAMGWYRQAPGKERELVAAISGGGRTNYADSVKGRFTISRDNAKNTVYLQMNSLKPEDTAVYYCARRSQRGIYSMYYWGQGTQVTVSS,low polyreactivity
20,QVQLVESGGGLVQAGGSLRLSCAASGSIFYGYAMGWYRQAPGKERELVAAISRGGSTYADSVKGRFTISRDNAKNTVYLQMNSLKPEDTAVYYCARRYWNCPLRGWYGYWGQGTQVTVSS,high polyreactivity

row,Sequence,polyreactivity (PSR sort gate)
1,QVQLVESGGGLVQAGGSLRLSCAASGSIFYGYAMGWYRQAPGKERELVAAISRRGGSTYYADSVKGRFTISRDIAKNTVDLQMNSLKPEDTAVYYCAAVGLWYEYYYWGQGTQVTVSS,high polyreactivity
2,QVQLVESGGGLVQAGGSLRLSCAASGSIFYGYAMGWYRQAPGKERELVASITSSGGSTYYADSVKGRFTISRDNAKNTVYLQMNSLKPEDTAVYYCNADGRPDWYVVRGGFEYWGQGTQVTVSS,low polyreactivity
3,QVQLVESGGGLVQAGGSLRLSCAASGSIFYGYAMGWYSQAPGKERELVAAISSSGGSTYYADSVKGRFTISRDNAKNTVYLQMNSLKTEDTAVDYCAADWDFVNGWFNYWGKGTQVTVSS,high polyreactivity
4,QVQLVESGGGLVQAGGSLRLSCAASGSIFYGYDMGWYRQAPGKERELVAAITIGGGTTYYADSVKGRFTISRDNAKNTVYLQMNSLKPEDTAVYYCAAEFYYTIYSNKVGYDYWGQGTQVTVSS,high polyreactivity
5,QVQLVESGGGLVQAGGSLRLSCAASGSIFYHNAMGWYRQAPGKERELVAAITSRGGRTTYADSVKGRFTISRDNAKNTVYLQMNSLKPEDTAVYYCNAVYTGYSYISRVDYWGQGTQVTVSS,low polyreactivity
6,QVQLVESGGGLVQAGGSLRLSCAASGSIFYHNSMGWYRQAPGKERELVAAITSGGSTHYADSVKGRFTISRDNAKNTVYLQMNSLKPEDTAVYYCNARDRRRTNLLDYWGQGTQVTVSS,low polyreactivity
7,QVQLVESGGGLVQAGGSLRLSCAASGSIFYHYAMGWYRQAPGKERELVAAISQSGGGTYYADSVKGRFTISRDNAKNTVYLQMNSLKPEDTAVYYCIRLSKQKQEFDYWGQGTQVTVSW,high polyreactivity
8,QVQLVESGGGLVQAGGSLRLSCAASGSIFYHYAMGWYRQAPGKERELVAAITITGGSTYYADSVKGRFTISRDNAKNTVYLQMNSLKPEDTAVYYCARKWYVHYNYWGQGTQVTVSS,high polyreactivity
9,QVQLVESGGGLVQAGGSLRLSCAASGSIFYHYVMGWYRQAPGKERELVAAISSSGRTYYADSVKGRFTISRDNAKNTVYLQMNSLKPEDTAVYYCAAYQKYYLRKYEYWGQGTQVTVSS,low polyreactivity
10,QVQLVESGGGLVQAGGSLRLSCAASGSIFYINDAMGWYRQPPGKERELVAAISSSDGTTYYADSVKGRFTISRDNAKNTVYLQMNSLKPEDTAGYYCAAETRAVGYDGDYWGQGTQVTVSS,high polyreactivity
11,QVQLVESGGGLVQAGGSLRLSCAASGSIFYINTMGWYRQPPGKERELVAAINFSDGRTYYADSVKGRFTISRDNAKNTVYLQMNSLKPEDTAVYYCAADVYPSEYDYWGQGTQVTVSS,low polyreactivity
12,QVQLVESGGGLVQAGGSLRLSCAASGSIFYIYAMGWYRQAPGKERELVAAISWRTSSTYYADSVKGRFTISRDNAKNTVYLQMNSLKPEDTAVYYCAAETWLGSWRQVGMDYWGQGTQVTVSS,high polyreactivity
13,QVQLVESGGGLVQAGGSLRLSCAASGSIFYKYMGWSRQAPGKERELVAAITWSGGSTYYADSVKGRFTISRDNAKNTVYLQMNSLKPEDPAVYYCAARDYTRYGYGYWGQGTQVTVSS,high polyreactivity
14,QVQLVESGGGLVQAGGSLRLSCAASGSIFYKYMGWYRQAPGKERELVAAISWSGGRTYYADSVKGRFTISRDNAKNTVYLQMNSLKPEDTAVYYCNRVVLWRIGDKAFEYWGQGTQVTVSS,high polyreactivity
15,QVQLVESGGGLVQAGGSLRLSCAASGSIFYKYMGWYRQAPGKERELVAAITWSGGSTYYADSVKGRFTISRDNAKNTVYLQMNSLKPEDTAVYYCNADDRHSRVGHSWQDAQFDYWGLGTQVTVSS,high polyreactivity
16,QVQLVESGGGLVQAGGSLRLSCAASGSIFYKYMGWYRQAPGKERELVAAMTWSGGSTYYADSVKGRFTISRDNAKNTVYLQMNSLKPEDTAVYYCNADDRHSRVGHSWQDAQFDYWGQGTQVTVSS,high polyreactivity
17,QVQLVESGGGLVQAGGSLRLSCAASGSIFYKYTMGWYRPAPGKERELVAAITKSGGSTYYADSVKGRFTISRDNAKNTVYLQMNSLKPEDTAVYYCAARRYRYYSRGSWGQGTQVTVSS,high polyreactivity
18,QVQLVESGGGLVQAGGSLRLSCAASGSIFYKYTMGWYRQAPGKERELVAAITKSGGSTYYADSVKGRFTISRDNAKNTVYLQMNSLKPEDTAVYYCAAQIGRSATRGSYGYWGQGTQVTVSS,high polyreactivity
19,QVQLVESGGGLVQAGGSLRLSCAASGSIFYLNAMGWYRQAPGKERELVAAINSGGTTNYADSVKGRFTISRDNAKNTVYLQMNSLKPEDTAVYYCATDGYYYYYRVYKFDYWGQGTQVTVSS,low polyreactivity
20,QVQLVESGGGLVQAGGSLRLSCAASGSIFYLYAMGWYRQAPGKERELVAGITWSGGRTYYADSVKGRFTISRDNAKNTVYLQMNSLKPEDTAVYYCAAYASRYRYGYWGQGTQVTVSS,high polyreactivity
